Experimental data published in ChEMBL document CHEMBL2074313, “Polyspecific substrate uptake by the hepatic organic anion transporter Oatp1 in stably transfected CHO cells” (Am J Physiol, 1999).

B1: Solute carrier organic anion transporter family member 1A1 (Rattus norvegicus) (protein)
chain: MEETEKKIATQEGRLFSKMKVFLLSLTCACLTKSLSGVYMNSMLTQIERQFDISTSVAGLINGSFEIGNLFFIVFVSYFGTKLHRPVVIGIGCVIMGLGCLLMSLPHFFMGRYEYETTISPTGNLSSNSFLCMENRTQTLKPTQDPAECVKEMKSLMWICVMVGNIIRGIGETPIVPLGISYIEDFAKSENSPLYIGILEMGKVAGPIFGLLLGSYCAQIYVDIGSVNTDDLTITPSDTRWVGAWWIGFLVCAGVNILTSIPFFFLPKALPKKGQQENVAVTKDGKVEKYGGQAREENLGITKDFLTFMKRLFCNPIYMLFILTSVLQVNGFINKFTFLPKYLEQQYGKSTAEAIFLIGVYSLPPICLGYLIGGFIMKKFKITVKKAAYLAFCLSVFEYLLFLCHFMLTCDNAAVAGLTTSYKGVQHQLHVESKVLADCNTRCSCSTNTWDPVCGDNGVAYMSACLAGCKKFVGTGTNMVFQDCSCIQSLGNSSAVLGLCKKGPECANRLQYFLILTIIISFIYSLTAIPGYMVFLRCVKSEEKSLGVGLHTFCIRVFAGIPAPVYFGALIDRTCLHWGTLKCGQRGACRMYDINSFRHIYLGLPIALRGSSYLPAFFILILMRKFQFPGDIDSSATDHTEMMLGEKESEHTDVHGSPQVENDGELKTKL

Assays:
Format in all cases: functional, cell-based
[1] = biological target: T1, Oatp1 (Solute carrier organic anion transporter family member 1A1) (Rattus norvegicus, UniProt P46720); experiment: (§1) TP_TRANSPORTER: uptake in Oatp1-expressing CHO-03 cell; details: hamster, CHO-03 cells expressing Oatp1
T1 sequence (P46720 whole entry): B1 chain

[2] = substrate: C[C@]12CC[C@@H]3c4ccc(O)cc4CC[C@H]3[C@@H]1CC[C@@H]2O[C@@H]1O[C@H](C(=O)O)[C@@H](O)[C@H](O)[C@H]1O; experiment: as §1
[3] = substrate: O=C1OC(c2ccc(O)c(S(=O)(=O)O)c2)(c2ccc(O)c(S(=O)(=O)O)c2)c2c(Br)c(Br)c(Br)c(Br)c21; experiment: as §1
[4] = substrate: COc1cc(C)c(S(=O)(=O)N[C@@H](CC(=O)O)C(=O)N[C@H](Cc2ccc(C(=N)N)cc2)C(=O)N2CCCCC2)c(C)c1C; experiment: as §1
[5] = substrate: C[C@H](CCC(=O)NCCS(=O)(=O)O)[C@H]1CC[C@H]2[C@@H]3[C@H](O)C[C@@H]4C[C@H](O)CC[C@]4(C)[C@H]3CC[C@]12C; experiment: as §1
[6] = substrate: [H][C@@]12CC=C3C[C@@H](OS(=O)(=O)O)CC[C@]3(C)[C@@]1([H])CC[C@]1(C)C(=O)CC[C@@]21[H]; experiment: as §1
[7] = substrate: C[C@H](CCC(=O)NCCS(=O)(=O)O)[C@H]1CC[C@H]2[C@@H]3[C@@H](O)C[C@@H]4C[C@H](O)CC[C@]4(C)[C@H]3CC[C@]12C; experiment: as §1
[8] = substrate: C[C@]12CC[C@@H]3c4ccc(OS(=O)(=O)O)cc4CC[C@H]3[C@@H]1CCC2=O; experiment: as §1

Molecule | Km [1] | Km [2] | Km [3] | Km [4] | Km [5] | Km [6] | Km [7] | Km [8]
C[C@@H]1O[C@@H](O[C@H]2C[C@@H](O)[C@]3(CO)[C@H]4[C@H](O)C[C@]5(C)[C@@H](C6=CC(=O)OC6)CC[C@]5(O)[C@@H]4CC[C@]3(O)C2)[C@H](O)[C@H](O)[C@H]1O [OUABAIN] | 3000 µM |  |  |  |  |  |  | 
C[C@@H]1Cc2c(Cl)cc(C(=O)N[C@@H](Cc3ccccc3)C(=O)O)c(O)c2C(=O)O1 [3R14S-OCHRATOXIN A] | 29 µM |  |  |  |  |  |  | 
B1 |  | 4 µM | 3 µM | 57 µM | 7 µM | 5 µM | 13 µM | 11 µM
